Data from the supplement of paper PMC10567573.
± gives the standard deviation.

Test: protein stability index of a GFP-peptide fusion (GPS, HEK-293T) (PSI 1-6); higher = more stable
Conditions: c terminus: a fixed tail appended
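Further: 24-mer peptide tiles fused after GFP, lentivirally expressed, FACS-sorted into six equal bins by GFP/DsRed ratio, decoded by Illumina sequencing, PSI is the read-weighted mean bin number.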

Sequence	protein stability index (treatment: DMSO)	protein stability index (treatment: MLN4924 1 uM, 8 h)
IEENITSAAPSNDQDGEYCPEVKL [SRPK2]	5.5 ± 0.17	5.49 ± 0.28
VTQDGRKIYFTDSSSKWQRRDYLL [APMAP]	2.51 ± 0.18	2.41 ± 0.63
IDKKPVSEKTDESDTIPYLKKFLY [MIA2]	2.83 ± 0.57	2.95 ± 0.4
WQDSDTVKLLVDLELSYGFENGQK [TOR1AIP2]	2.7 ± 0.37	2.65 ± 0.49
EQTAPGDSTGYMEVSLDSLDLRVK [EHMT1]	4.59 ± 0.32	4.87 ± 0.2
RGGDGEVASAPLQPPVPSLSEVKP [TRADD]	5.34 ± 0.36	5.04 ± 0.58
VKRRRTASLSNQECQLYPRRSQQQ [SNURF]	4.43 ± 0.18	4.45 ± 0.19
VTEDLRLKDWEHSIALRNISLAKG [SCARA5]	3.5 ± 0.26	3.59 ± 0.39
QFGQDGPISVHCSAGVGRTGVFIT [PTPRD]	2.46 ± 0.48	2.15 ± 0.22
YIESSTKVYDDMAFRYLSWILFPL [CLPTM1]	2.73 ± 0.13	2.61 ± 0.47
KPKIEDVGSDEEDDSGKDKKKKTK [HSP90AB1]	5.54 ± 0.24	5.56 ± 0.12
EPYARLPPHKHVARPTEVLAGTQL [TRIB3]	4.05 ± 0.1	3.88 ± 0.28
VQSEIFLHESYCMDTSHQPLLPAP [LYSMD4]	2.93 ± 0.23	2.76 ± 0.28
SMAMEYFDEKIVPILKRKLPGSDV [FBXO28]	3 ± 0.22	3.25 ± 0.073
LMAEGLLPAVKVFLDWLRTNPDLI [SMG5]	2.57 ± 0.38	2.6 ± 0.56
YVKVLHHMVKISGGPRISYPLLHE [MAGEA6]	2.68 ± 0.52	2.41 ± 0.5
QAHELAYDPNYMSPFAQFACDNGL [PPTC7]	3.32 ± 0.12	3.13 ± 0.41
GLSPYSDYEFRVVAVNNIGRGPPS [PTPRD]	2.41 ± 0.35	3.14 ± 0.033
SESPGSLSEVLAQPQGALAPPNCE [DNAAF3]	5.44 ± 0.1	5.17 ± 0.17
HVLHHGTGKWYELQDLQVTDILPQ [USP39]	2.82 ± 0.4	2.95 ± 0.39
KAETKTKKAAESLRRSVEKYNSAR [FCHO1]	4.64 ± 0.22	4.72 ± 0.075
LPGNEEFQVVKDAVLDCLLDFLPK [TENT5D]	2.32 ± 0.39	2.4 ± 0.21
LRNNQISHKGAEELALALKGNTTL [LRRC45]	3.92 ± 0.14	4.05 ± 0.21

Sequence	protein stability index (treatment: DMSO)	protein stability index (treatment: MLN4924 1 uM, 8 h)
FRHLRLQYIISDLASARIIEQDAV [GMCL1]	2.6 ± 0.73	2.44 ± 0.48
MLLGVPRLRQLKVRNDSCVVHEDF [PKD2L1]	2.46 ± 0.33	2.52 ± 0.32
EPEEEILGSDDEEQEDPADYCKGG [SRPK2]	5.54 ± 0.29	5.55 ± 0.24
GKKFLLLSINRYERKKNLTLALEA [ALG2]	2.35 ± 0.88	2.6 ± 0.39
IYNGGVEAVSTLLGAVAVFAVGYI [SLC19A2]	2.37 ± 0.26	–
YSEHFLQEAKLLHWNGRHKPWDFP [GLT8D2]	2.17 ± 0.21	2.41 ± 0.36
QRRPRVLSCLHSVCEQCLQILYES [RNF208]	2.32 ± 0.17	2.64 ± 0.54
LVDEEEKVLIQKNLGPKSKVLILR [ADD1]	3.16 ± 0.5	2.84 ± 0.25
AQLELYQLQVESNSSQLLLRRHAG [SCARA5]	2.71 ± 0.26	2.9 ± 0.25
QDFNTMFTNCYIYNKPTDDIVLMA [BRD3]	2.12 ± 0.28	2.23 ± 0.25
QSYPSQDKPLPPPPPGSLSRTQEP [SOAT2]	5.2 ± 0.41	5.08 ± 0.24
TVDKCFGRKKYDIDPRNGIPKLTP [SPATS1]	3.45 ± 0.36	3.51 ± 0.23
VLSLKEGAREEDLDAVEAQIGCKL [FBXO3]	5.24 ± 0.49	4.6 ± 0.25
VFRIFKLSRHSKGLQILGHTLRAS [KCNA4]	2.39 ± 1	2.6 ± 0.68
QYQQVPVEIVKSDFHKPFLGGFRH [IQUB]	2.7 ± 0.36	2.99 ± 0.49
VVVESMEQDRIPEVHVPPSSAVSG [MIA2]	4.45 ± 0.36	4.48 ± 0.2
YQDKIRPYIQLPSHSNITGIVEVI [TRIB1]	2.39 ± 0.3	2.17 ± 0.094
QKAGVTRSGRLILWEAPPLGAGGG [NEK8]	3.31 ± 0.29	2.95 ± 0.32
ICGLQQDEEVSSLTCDALTELLAK [CCND2]	3.48 ± 0.29	3.74 ± 0.36
MKAAVDLKPTLTIIKTEKVDLELF [ETS1]	2.46 ± 0.35	2.55 ± 0.32
LSFQEELLYWGIAEDHLDGCCKRR [KCNG1]	2.35 ± 0.36	2.61 ± 0.26
RTFGPPPSLSPGAFSYSSSSRFSS [PRPH]	3.42 ± 0.21	3.8 ± 0.3
QCIECGKSFNRHCNLIRHQKIHTV [ZSCAN9]	3.37 ± 0.3	3.36 ± 0.38

Sequence	protein stability index (treatment: DMSO)	protein stability index (treatment: MLN4924 1 uM, 8 h)
NVADTLVLADLHSAEQLKAQAIDF [SPOPL]	3.46 ± 0.16	3.77 ± 0.57
RQKREAAARKKYNLLQDSSTSDSD [C18orf25]	5.17 ± 0.25	5.18 ± 0.15
GARPPPTPPASPPPSVLISKNEVG [KMT2E]	4.91 ± 0.12	5.08 ± 0.18
RANPCLSSSNEHAAPAAKTRKQAA [ELOA2]	5.08 ± 0.16	5.18 ± 0.26
TSDASFHPAFLPQRQAIKGAFYRR [KCNG1]	3.62 ± 0.097	3.66 ± 0.13
LTQPLQGGTPHCEPCQLPSESPGS [DNAAF3]	5.17 ± 0.2	5.12 ± 0.12
QRNGLVFIYDMCGSNYANFELDLG [PTPN9]	2.84 ± 0.23	2.37 ± 0.57
VDVQTELYLEEIADRIIEVDMECQ [RSPH3]	2.75 ± 0.32	3.12 ± 0.69
AESHASKDVAIDMMDSRTSQQLQL [STX5]	4.98 ± 0.11	4.89 ± 0.18
LRKRKEIREDRDRARLDSMVLLIM [DLC1]	2.08 ± 0.51	2.17 ± 0.34
ISGGFDRTVAIWDVAEGYRKLSLK [WDR88]	3.09 ± 0.49	3.02 ± 0.36
SSSVSISHSASATGNVCIEEIDVD [LMNB1]	5.38 ± 0.15	5.4 ± 0.21
AGFDALQGDPKGEMAATPAGFAQL [HDAC6]	4.37 ± 0.21	4.09 ± 0.36
LKAKKVWYDMFRDAAAILLDEQNK [ZMAT5]	2.38 ± 0.1	2.26 ± 0.17
GVGKAIEEELQEIASEPTNKHLFY [MATN2]	4.75 ± 0.37	4.46 ± 0.11
LTKYPTDRDSIWKCLKFLGSRHPT [INTS4]	2.38 ± 0.19	2.39 ± 0.095
HLMPFRQHCRQSLASRIRSNKKML [KLHL14]	2.39 ± 0.11	2.34 ± 0.1
SSGLQDVTGPDNGVRESETEQGFG [NFE2L1]	5.6 ± 0.17	5.39 ± 0.35
MATESVDHELGRCTDSVVKYELMR [EHMT1]	3.65 ± 0.29	3.69 ± 0.19
ANYTCVAMSTLGVIEAIAQITVKA [PTPRD]	2.63 ± 0.16	3.29 ± 0.93
YVWVPIEQCLPSLENSKYCRFNQD [ATE1]	2.3 ± 0.4	2.19 ± 0.12
AQMAKAAAEERALFTDRMATRSTT [WEE1]	4.8 ± 0.21	4.87 ± 0.25
IDSYDPSTGEVYCRVPNSGKDEIE [ALDH8A1]	4.97 ± 0.2	4.92 ± 0.2

Sequence	protein stability index (treatment: DMSO)	protein stability index (treatment: MLN4924 1 uM, 8 h)
EFISSTKRPYAKELETVDFKDKLE [SERPINB5]	3.98 ± 0.24	4.32 ± 0.13
SIPLERIHFDSYITCVSGAIVDLI [FBXO33]	2.44 ± 0.42	2.26 ± 0.42
KILVGNRLHLAFKRQVPTEQAQAY [RAB40B]	2.07 ± 0.16	2.5 ± 0.23
SDLNVVASFDRRGEYIYTGNAKGK [RBBP5]	4.32 ± 0.6	4.4 ± 0.26
LASYLEKVRQLERDNAELEKLIQE [KRT34]	3.33 ± 0.22	3.5 ± 0.24
DPIVRPLWWIAPGDETAHRIDSQF [MYORG]	3.23 ± 0.18	3.24 ± 0.27
LTSLKDLYKSLKTLSAELVPWLNL [CEP70]	3.15 ± 0.57	3.07 ± 0.42
YSSNQLHHFFCDIAPVLKLASHHN [OR10K2]	2.59 ± 0.72	2.17 ± 0.38
YNDVMQENYETVISLALFVLPKPK [ZNF75A]	2.82 ± 0.64	2.71 ± 0.84
NWRYATGGWETVFRPVSETCTDRS [FUT8]	2.21 ± 0.42	3 ± 0.67
KSAILVPSEKKVAIIRTPPKSPAT [MAP2]	4.32 ± 0.14	4.41 ± 0.1
GTLNREDLSRLVNCLTGEGEDTRL [CIB1]	4.25 ± 0.32	4.48 ± 0.31
KRKKLSTWKQELLKLMDRHKKDCA [ZNF75A]	2.7 ± 0.15	2.83 ± 0.21
ISLHPFNPWNWGKLAEAYLNLGPA [C8orf76]	2.23 ± 1.1	2.18 ± 0.77
VTSQATLLTITKAHSNAISNCCFT [WDR88]	2.3 ± 0.55	2.18 ± 0.28
GATCMFVASKMKETIPLTAEKLCI [CCND1]	2.34 ± 0.34	1.99 ± 0.41
NGASWHTVAGSLNDFSYLHTNCFE [CPXM2]	2.68 ± 0.47	2.83 ± 0.23
AGGRVFVLPCIQQIQRISLNTLTL [FLOT1]	2.96 ± 0.57	2.93 ± 0.59
KYKVHGKEILRTLQDVFCWLPLAT [PPEF2]	3.08 ± 0.62	3.3 ± 1.7
MGRKRLITDSYPVVKRREGPAGHS [POLD4]	3.33 ± 0.32	3.2 ± 0.29
NDFSYLHTNCFELSIYVGCDKYPH [CPXM2]	2.5 ± 0.18	2.25 ± 0.37
